This note sets out measurements from the DeepSol protein solubility set.

The nature of the series: soluble on expression in E. coli; label from the status in PepcDB or PDB records.
Consider “KLKPYNSEKILKYAEEVKSLYEKQSEENQEAYLQSIAKLGYEIYIVDDQKNGKRIGNAFRKTSISDDTVHKVLQGETFNGVSTYPTRLFITGFFDNELINSVGVPVKHGDKQYALFIRPDIQNQFGEMR”, for which the “soluble on expression in E. coli” value was “not soluble”. For the sequence “MPRDNSSSSRRRRGSKRCPTGMSSNKTSRSTSSSSVTSSSGHGASSFSEDSSVRSVTNSVRSTRSAGSIMSMASAEASVVAPDLTIYHGDRKQSYQLADKGKMVVINRKNGVIVYMLRCVDGRRVYIEKSSEGASLILTNQRGKVIKALAGHY”, the “soluble on expression in E. coli” value is on record as “not soluble”. Consider “MGSDKIHHHHHHMSLANRYEFVYLFDVSNGNPNGDPDAGNLPRLDPETNQGLVTDVCLKRKLRNYVALEKENEPGFAIYMQEKSVLNHQHKRAYEALSLEPEPKKLPKDQAKARELTAWMCKNFFDVRAFGAVMTTEVNAGQVRGPIQLTFATSIDPVVPLEVSITRMAVTNDKDLEKERTMGRKHIVPYGLYRAHGFVSAKLAERAGFGEEDLQLLWRGLINMFEHDRSAARGEMTARKLIAFKHECALGNAPAHRLFDSVRVSRADGAGDSPARGFTDYRVELDRAVLPAGVEVLELL”, for which the “soluble on expression in E. coli” value is “not soluble”. Next, “MRTLLLAGGLLVLSGCSLLMPTPDPNRAWVDLDTQPDADLAAVEVDDKSWDRTRYFEVDPGTRELTVRYQFTVDPTNIGPVDSPLWRDCQLNLKFKDFSAGQRYRLEAGHIGFRPWAKLYDQDNRELARGREGRCAKV”: “not soluble”; “MTKPVVDVKNVQKVYGKKGENQSHALKGVSFSIQEGEFVGIMGPSGSGKTTLLNVISTLDKATGGVVEIAGTDITKMKQGELSDFRSQKLGFIFQDFNLLENLSIYENIALPLSLQGVPSRNIGPKVEKVADMLGISAILQKYPSEVSGGQKQRSAAARALVHEPAIILGDEPTGALDSKNATSLLDAMTNLNQEQGVSIMMVTHDPFSASYCQRILFIQDGELYKEIHRGGTREEFYKEILDVLADLGTQKA”: “not soluble”; “MILDYIYHSGFAIEAEGVTLIIDYYKDSSETELNKGIVHDRLLQRPGKLYVLASHFHPDHFNREVLTWKEQRPDIIYIFSKDILKHHRAQKEDAIYINKGEEYEDDMLRIQAFGSTDVGISFLIHLQGKSIFHAGDLNNWHWSEESTEQEIRKAEGDFLAEIKYLQAAVPTIDLVMFPVDRRMGKDYMKGAQQFIERIKTTIFVPMHFSEDYEGGNAFRSIAEAGGCRFITITHRGESFDI”: “not soluble”. Next, “MGFLKGKKGLIVGVANNKSIAYGIAQSCFNQGATLAFTYLNESLEKRVRPIAQELNSPYVYELDVSKEEHFKSLYNSVKKDLGSLDFIVHSVAFAPKEALEGSLLETSKSAFNTAMEISVYSLIELTNTLKPLLNNGASVLTLSYLGSTKYMAHYNVMGLAKAALESAVRYLAVDLGKHHIRVNALSAGPIRTLASSGIADFRMILKWNEINAPLRKNVSLEEVGNAGMYLLSSLSSGVSGEVHFVDAGYHVMGMGAVEEKDNKATLLWDLHKEQ”: “soluble”; “MGSDKIHHHHHHMSGTLITSDVDVDAHGKQQAYLRVPHSVHRSAYGWIPVPIAVIRNGDGPTLVISAGVHGDEYEGQIAVATLIRTLDATDIRGRLILLPMVNVPAAEAGCRTSPIDAGNLNRLYPGDPKGMPSQMIAHFHEEVILPLADYAVDLHSGGSSLIYPATVMRGPSHSPQEEDGLATLVDAFDLPYTWVFQGGGGRDSTARTAMGAANRKGVINVMAELGGAGCVTPDVLHRTERGLRRILHAVGMLPGYVPDGAQGTRAVSVQGSVYAFETGVFEPLKSIGGDVVKGEAVAHIHHPETPGKAPDVVLSPHAGMVLAMRAMAQVRRGDALYQIAADAG”: “not soluble”. On to “LGSMAAAAAQGGGGGEPRRTEGVGPGVPGEVEMVKGQPFDVGPRYTQLQYIGEGAYGMVSSAYDHVRKTRVAIKKISPFEHQTYCQRTLREIQILLRFRHENVIGIRDILRASTLEAMRDVYIVQDLMETDLYKLLKSQQLSNDHICYFLYQILRGLKYIHSANVLHRDLKPSNLLINTTCDLKICDFGLARIADPEHDHTGFLTEYVATRWYRAPEIMLNSKGYTKSIDIWSVGCILAEMLSNRPIFPGKHYLDQLNHILGILGSPSQEDLNCIINMKARNYLQSLPSKTKVAWAKLFPKSDSKALDLLDRMLTFNPNKRITVEEALAHPYLEQYYDPTDEPVAEEPFTFAMELDDLPKERLKELIFQETARFQPGVLEAP”, for which the “soluble on expression in E. coli” value is recorded as “soluble”. Consider “MGSDKIHHHHHHMTAATQAKHTPDDLSVAPRDIRFDLTSAQKGHWLGGDPVGTAVFNALSLTFPDGERMFMDAVKAYRDRLSGKLLEDAKGFIAQEAIHSREHHHLNSLIDRERYPVAEIEETIRGRVKMARERGPMAMLISTIALEHFTAMMAEMHARHRNLFDTTDPEIEKLWRWHAVEETEHKAVAYDVFLEVTKDWSPLKRYMIRCRAMVFVTIMFTRNISRYAARLLEADGYTPKAALKAVKRFVWGDPGIFRRGWKTYFAWYRPGFHPWDQDDRPLVADWMAEFNAAAVRV”, for which the “soluble on expression in E. coli” value was “not soluble”. In the case of “MAEETQTVETVEEQVVPEAKQPQDEKKYTDADVDAIIDKKFAKWKSEQEAEKSEAKKMAKMNEKEKADYEKQKLLDELQELKNDKTRNELTAVARQMFAESEINVNDDVLGLVVTLDAEQTKANVTTLANAFAKVIADDRKALVRQTTPSTGGGLSKQTNYGANLASKAAQQSTKLF” it was “not soluble”; in that of “GSHMDTSLAEEVQQTMATLAPNRFFFMSPYRSFTTSGCFARFDEPAVNGDSPDSPFQQKLAALFADAKAQGIKNPVMVGAIPFDPRQPSSLYIPESWQSFSRQEKQASARRFTRSQSLNVVERQAIPEQTTFEQMVARAAALTATPQVDKVVLSRLIDITTDAAIDSGVLLERLIAQNPVSYNFHVPLADGGVLLGASPELLLRKDGERFSSIPLAGSARRQPDEVLDREAGNRLLASEKDRHEHELVTQAMKEVLRERSSELHVPSSPQLITTPTLWHLATPFEGKANSQENALTLACLLHPTPALSGFPHQAATQVIAELEPFDRELFGGIVGWCDSEGNGEWVVTIRCAKLRENQVRLFAGAGIVPASSPLGEWRETGVKLSTMLNVFGLH”, “soluble”. Next, “MGSDKIHHHHHHLITVTDLSLQIGSRTLYSDVNLKFTPGNCYGIIGANGAGKSTFLKLLEGKMEPTTGSISMGPNERMSSLNQDHFAFEDFSVMETVIQGHQKLYQVMKERDALYAKADFSEEDGVKAAELETEFAELDGWNAEADAAQLLQSMSIPEDMHQKQMSELAESDKVKVLLAQALFGNPDTLLLDEPTNGLDVHTTAWLENFLADYENIVLVVSHDRHFLNQVCTQMCDVDRGQIKLYVGNYDFWYESSKLATELARQQNAKKEEQIKQLQEFIARFSANASKSKQATSRKKQLDKISLDDIKPSSRKYPYIKFEMNRDLGNDLLRVDNVSYKSGDEQLLDNVSFIIRPGDKVAFLSRNTRATTALMEIIAGRLEPDSGTVTWGQTTSFNYMSRDLNANFDNDELTILDWLRQYADKEHDDNTFLRGFLGRMLFSGDEINKQIKVLSGGEKVRCQLSRMMLEAANVLVMDDPTNHLDLESITALNEAMENYPGSILFTSHDHEFIQTIANHIIEVGPKGVVARADISYDDFLAHPTVQEQVAKIY”: “not soluble”.

Turning to “TTPAPESNRKYIIAVTACPTGIAHTYMAEDALKKKAKEMGVDIKVETNGSEGIKNRLTAEDIARADGVIVAADKKVEMNRFDGKKLVNRPVSDGIRKTEELINLAISGEAPTFHGSDSAA”, the “soluble on expression in E. coli” value is recorded as “not soluble”. In the case of “MKVFDVHKFDMKKEQDFLQVQFNLKNRINLSPTIHPDSINTGAGVDLAYWEQDGEPYGVCCIIVIDADTKEVIEKVHSMGRISVPYVSGFLAFRELPLIIEAAKKLETEPDVFLFDGNGYLHYNHMGVATHAAFFLGKPTIGIAKTYLKIKGCDFVTPEIEVGAYTDIIIDGEVYGRALRTRRDVKPIFLSCGNYIDLDSSYQITMSLINQESRLPIPVRLADLETHVLRTFYQKNHVLEHHHHHH”, the “soluble on expression in E. coli” value was “soluble”.

“ADTYAATRYPVILVHGLAGTDKFANVVDYWYGIQSDLQSHGAKVYVANLSGFQSDDGPNGRGEQLLAYVKQVLAATGATKVNLIGHSQGGLTSRYVAAVAPQLVASVTTIGTPHRGSEFADFVQDVLKTDPTGLSSTVIAAFVNVFGTLVSSSHNTDQDALAALRTLTTAQTATYNRNFPSAGLGAPGSCQTGAATETVGGSQHLLYSWGGTAIQPTSTVLGVTGATDTSTGTLDVANVTDPSTLALLATGAVMINRASGQNDGLVSRCSSLFGQVISTSYHWNHLDEINQLLGVRGANAEDPVAVIRTHVNRLKLQGV”: the “soluble on expression in E. coli” value is given as “soluble”.
